Measured values as given in the supplement of paper PMC11246515.
± gives the standard deviation of the averaged measurements.

Assay: total protein half-life in vivo (active degradation + dilution); higher = more stable protein
[1] = E. coli NCM3722 delta-clpP delta-lon delta-hslV, growth: N-lim chemostat, doubling time 6 h
[2] = E. coli NCM3722 delta-clpP, growth: N-lim chemostat, doubling time 6 h
[3] = E. coli NCM3722 delta-hslV, growth: N-lim chemostat, doubling time 6 h
[4] = E. coli NCM3722 delta-lon, growth: N-lim chemostat, doubling time 6 h
[5] = E. coli NCM3722 delta-smpB, growth: N-lim chemostat, doubling time 6 h
[6] = wild type E. coli NCM3722, growth: C-lim chemostat, doubling time 3 h
[7] = wild type E. coli NCM3722, growth: C-lim chemostat, doubling time 6 h
[8] = wild type E. coli NCM3722, growth: C-lim chemostat, doubling time 12 h
[9] = wild type E. coli NCM3722, growth: N-lim chemostat, doubling time 6 h
[10] = wild type E. coli NCM3722, growth: N-lim chemostat, doubling time 12 h
[11] = wild type E. coli NCM3722, growth: P-lim chemostat, doubling time 12 h
[12] = wild type E. coli NCM3722, growth: P-lim chemostat, doubling time 6 h

Sequence	total protein half-life in vivo [1] [h]	total protein half-life in vivo [2] [h]	total protein half-life in vivo [3] [h]	total protein half-life in vivo [4] [h]	total protein half-life in vivo [5] [h]	total protein half-life in vivo [6] [h]	total protein half-life in vivo [7] [h]	total protein half-life in vivo [8] [h]	total protein half-life in vivo [9] [h]	total protein half-life in vivo [10] [h]	total protein half-life in vivo [11] [h]	total protein half-life in vivo [12] [h]
MFRRRGVTLTKALLTAVCMLAAPLTQAISVGNLTFSLPSETDFVSKRVVNNNKSARIYRIAISAIDSPGSSELRTRPVDGELLFAPRQLALQAGESEYFKFYYHGPRDNRERYYRVSFREVPTRNHTRRSPTGGVVSTEPVVVMDTILVVRPRQVQFKWSFDKVTGTVSNTGNTWFKLLIKPGCDSTEEEGDAWYLRPGDVVHQPELRQPGNHYLVYNDKFIKISDSCPAKPPSAD	4.58	4.57 ± 0.28	3.66	4.37	4.89 ± 0.82	2.51 ± 0.53	3.37	9.74	3.84	6.84	9.993 ± 0.096	
MRSAQVYRWQIPMDAGVVLRDRRLKTRDGLYVCLREGEREGWGEISPLPGFSQETWEEAQSVLLAWVNNWLAGDCELPQMPSVAFGVSCALAELTDTLPQAANYRAAPLCNGDPDDLILKLADMPGEKVAKVKVGLYEAVRDGMVVNLLLEAIPDLHLRLDANRAWTPLKGQQFAKYVNPDYRDRIAFLEEPCKTRDDSRAFARETGIAIAWDESLREPDFAFVAEEGVRAVVIKPTLTGSLEKVREQVQAAHALGLTAVISSSIESSLGLTQLARIAAWLTPDTIPGLDTLDLMQAQQVRRWPGSTLPVVEVDALERLL			3.779 ± 0.0063	4.33 ± 0.7	3.7 ± 0.25	3.25 ± 0.19	5.71 ± 0.44	13.2	3.88 ± 0.14	6.68 ± 0.4	11.5 ± 0.8	5.7 ± 0.073
MTITPATHAISINPATGEQLSVLPWAGADDIENALQLAAAGFRDWRETNIDYRAEKLRDIGKALRARSEEMAQMITREMGKPINQARAEVAKSANLCDWYAEHGPAMLKAEPTLVENQQAVIEYRPLGTILAIMPWNFPLWQVMRGAVPIILAGNGYLLKHAPNVMGCAQLIAQVFKDAGIPQGVYGWLNADNDGVSQMIKDSRIAAVTVTGSVRAGAAIGAQAGAALKKCVLELGGSDPFIVLNDADLELAVKAAVAGRYQNTGQVCAAAKRFIIEEGIASAFTERFVAAAAALKMGDPRDEENALGPMARFDLRDELHHQVEKTLAQGARLLLGGEKMAGAGNYYPPTVLANVTPEMTAFREEMFGPVAAITIAKDAEHALELANDSEFGLSATIFTTDETQARQMAARLECGGVFINGYCASDARVAFGGVKKSGFGRELSHFGLHEFCNIQTVWKDRI	3.43 ± 0.22	2.38 ± 0.15	2.3185 ± 0.00041	3.35 ± 0.57	2.62 ± 0.24	2.87 ± 0.15	4.72 ± 0.27	7.87 ± 0.72	2.56 ± 0.092	3.65 ± 0.4	9.54 ± 0.88	5.341 ± 0.022
MKREEIADLMAFVVVAEERSFTRAAARLSMAQSALSQIVRRIEERLGLRLLTRTTRSVVPTEAGEHLLSVLGPMLHDIDSAMASLSDLQNRPSGTIRITTVEHAAKTILLPAMRTFLKSHPEIDIQLTIDYGLTDVVSERFDAGVRLGGEMDKDMIAIRIGPDIPMAIVGSPDYFSRRSVPTSVSQLIDHQAINLYLPTSGTANRWRLIRGGREVRVRMEGQLLLNTIDLIIDAAIDGHGLAYLPYDQVERAIKEKKLIRVLDKFTPDLPGYHLYYPHRRHAGSAFSLFIDRLKYKGAV	5.34 ± 0.45		> 8	6.34	6.01 ± 1.5	2.929 ± 0.019			5.238 ± 0.043	11.7	9.19 ± 3.4	5.36
MFIPSIYLHQQLHYCKTAILNWSRKMALSRQKFTFERLRRFTLPEGKKQTFLWDADVTTLACRATSGAKAFVFQSVYAGKTLRMTIGNINDWKIDDARAEARRLQTLIDTGIDPRIAKAVKIAEAESLQAESRKTKVTFSVAWEDYLQELRTGISAKTKRPYSTRYIADHINLSSRGGESKKRGQGPTSAGPLASLLNLPLSELTPDYIAAWLSTERQNRPTVTAHAYRLLRAFIKWSNYQKKYQGIIPGDLAQDYNVRKMVPVSASKADDCLQKEQLKSWFSAVRSLNNPIASAYLQVLLLTGARREEIASLRWSDVDFKWSSMRIKDKIEGERIIPLTPYVSELLNVLAQSPNSDVNKEGWVFRSNSKSGKIIEPRSAHNRALVLAELPHISLHGLRRSFGTLAEWVEVPTGIVAQIMGHKPSALAEKHYRRRPLDLLRKWHEKIETWILNEAGITIKNNVDMR	4.69 ± 0.43	1.01 ± 0.058	1.22 ± 0.19	3.07 ± 0.74	0.692 ± 0.011	0.877 ± 0.072	1.51 ± 0.091	3.01 ± 0.11	1.19 ± 0.41	1.97 ± 0.42	2.03 ± 0.4	0.516
MAKNYAALARSVIAALGGVDNISAVTHCMTRLRFVIKDDALIDSPTLKTIPGVLGVVRSDNQCQVIIGNTVSQAFQEVVSLLPGDMQPAQPVGKPKLTLRRIGAGILDALIGTMSPLIPAIIGGSMVKLLAMILEMSGVLTKGSPTLTILNVIGDGAFFFLPLMVAASAAIKFKTNMSLAIAIAGVLVHPSFIELMAKAAQGEHVEFALIPVTAVKYTYTVIPALVMTWCLSYIERWVDSITPAVTKNFLKPMLIVLIAAPLAILLIGPIGIWIGSAISALVYTIHGYLGWLSVAIMGALWPLLVMTGMHRVFTPTIIQTIAETGKEGMVMPSEIGANLSLGGSSLAVAWKTKNPELRQTALAAAASAIMAGISEPALYGVAIRLKRPLIASLISGFICGAVAGMAGLASHSMAAPGLFTSVQFFDPANPMSIVWVFAVMALAVVLSFILTLLLGFEDIPVEEAAAQARKYQSVQPTVAKEVSLN						1.77 ± 0.078		3.55				
MTKVLLSHPPRPASHNSSRAMVWVRKNLFSSWSNSLLTIGCIWLMWELIPPLLNWAFLQANWVGSTRADCTKAGACWVFIHERFGQFMYGLYPHDQRWRINLALLIGLVSIAPMFWKILPHRGRYIAAWAVIYPLIVWWLMYGGFFALERVETRQWGGLTLTLIIASVGIAGALPWGILLALGRRSHMPIVRILSVIFIEFWRGVPLITVLFMSSVMLPLFMAEGTSIDKLIRALVGVILFQSAYVAEVVRGGLQALPKGQYEAAESLALGYWKTQGLVILPQALKLVIPGLVNTIIALFKDTSLVIIIGLFDLFSSVQQATVDPAWLGMSTEGYVFAALIYWIFCFSMSRYSQYLEKRFNTGRTPH									4.17			
MTFWSILRQRCWGLVLVVAGVCVITFIISHLIPGDPARLLAGDRASDAIVENIRQQLGLDQPLYVQFYRYVSDLFHGDLGTSIRTGRPVLEELRIFFPATLELAFGALLLALLIGIPLGILSAVWRNRWLDHLVRIMAITGISTPAFWLGLGVIVLFYGHLQILPGGGRLDDWLDPPTHVTGFYLLDALLEGNGEVFFNALQHLILPALTLAFVHLGIVARQIRSAMLEQLSEDYIRTARASGLPGWYIVLCYALPNALIPSITVLGLALGDLLYGAVLTETVFAWPGMGAWVVTSIQALDFPAVMGFAVVVSFAYVLVNLVVDLLYLWIDPRIGRGGGE	> 8		5.53						5.15	7.28		
MKNNPLISIYMPTWNRQQLAIRAIKSVLRQDYSNWEMIIVDDCSTSWEQLQQYVTALNDPRITYIHNDINSGACAVRNQAIMLAQGEYITGIDDDDEWTPNRLSVFLAHKQQLVTHAFLYANDYVCQGEVYSQPASLPLYPKSPYSRRLFYKRNIIGNQVFTWAWRFKECLFDTELKAAQDYDIFLRMVVEYGEPWKVEEATQILHINHGEMQITSSPKKFSGYFHFYRKHKDKFDRASKKYQLFTLYQIRNKRMTWRTLLTLLSVRNGKRLADGIRGR	3.18			2.71 ± 0.069	1.7 ± 0.1							
